What was measured:
[1] = biological target: T1, human IL-18Rβ on cells (human, UniProt O95256 20-599); test: cell-based or functional assay
T1 sequence: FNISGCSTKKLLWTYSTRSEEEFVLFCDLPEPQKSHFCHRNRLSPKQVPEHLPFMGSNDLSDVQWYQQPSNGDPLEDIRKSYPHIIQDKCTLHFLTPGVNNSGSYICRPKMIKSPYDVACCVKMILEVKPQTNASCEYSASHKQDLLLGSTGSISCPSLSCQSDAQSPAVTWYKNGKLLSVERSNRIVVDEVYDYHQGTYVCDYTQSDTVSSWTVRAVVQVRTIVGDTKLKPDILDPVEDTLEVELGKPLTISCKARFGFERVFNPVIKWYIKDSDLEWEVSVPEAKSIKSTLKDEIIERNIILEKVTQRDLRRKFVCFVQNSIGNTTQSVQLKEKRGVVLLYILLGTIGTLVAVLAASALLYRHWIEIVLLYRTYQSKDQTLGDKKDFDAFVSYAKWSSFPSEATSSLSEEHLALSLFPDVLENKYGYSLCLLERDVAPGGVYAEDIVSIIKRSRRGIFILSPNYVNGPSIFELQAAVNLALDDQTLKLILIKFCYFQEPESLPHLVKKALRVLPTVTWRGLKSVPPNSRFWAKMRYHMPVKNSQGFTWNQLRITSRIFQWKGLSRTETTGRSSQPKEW

[2] = biological target: T2, cyIL-18Rβ-HisAvi (cynomolgus monkey); test: SPR T200, mAb on anti-hFc, 37C, pH 6
T2 construct: Soluble analyte in SPR; also called cyno IL-18Rβ; cynomolgus monkey IL-18Rβ
T2 chain: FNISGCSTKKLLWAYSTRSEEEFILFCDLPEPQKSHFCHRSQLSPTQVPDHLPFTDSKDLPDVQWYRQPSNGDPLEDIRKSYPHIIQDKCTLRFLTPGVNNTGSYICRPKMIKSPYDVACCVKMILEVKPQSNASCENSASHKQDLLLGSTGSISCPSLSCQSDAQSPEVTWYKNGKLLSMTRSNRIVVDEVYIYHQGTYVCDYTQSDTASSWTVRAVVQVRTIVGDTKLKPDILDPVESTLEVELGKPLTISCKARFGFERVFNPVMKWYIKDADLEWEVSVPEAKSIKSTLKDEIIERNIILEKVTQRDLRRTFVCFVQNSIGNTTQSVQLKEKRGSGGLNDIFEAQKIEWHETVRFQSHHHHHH

[3] = biological target: T3, huIL-18Rβ-HisAvi (human, UniProt O95256 20-356, biotinylated in the Octet blocking assay); test: SPR T200, mAb on anti-hFc, 37C, pH 6
T3 construct: Soluble analyte in all SPR runs; captured on streptavidin sensors in the Octet assay; also called human IL-18Rβ; human IL-18Rβ-Avi-His
T3 sequence: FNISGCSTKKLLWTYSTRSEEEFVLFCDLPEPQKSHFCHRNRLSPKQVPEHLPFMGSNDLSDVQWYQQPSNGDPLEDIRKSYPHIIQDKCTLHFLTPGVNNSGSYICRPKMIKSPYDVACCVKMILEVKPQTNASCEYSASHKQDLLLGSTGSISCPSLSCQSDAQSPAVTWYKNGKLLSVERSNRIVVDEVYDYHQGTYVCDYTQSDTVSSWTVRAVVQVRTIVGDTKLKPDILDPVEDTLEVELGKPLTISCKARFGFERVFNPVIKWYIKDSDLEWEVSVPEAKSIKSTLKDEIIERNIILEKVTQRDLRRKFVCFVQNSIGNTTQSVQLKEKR

[4] = biological target: T2, cyIL-18Rβ-HisAvi; test: SPR T200, mAb on anti-hFc, 37C, pH 6
[5] = biological target: T3, huIL-18Rβ-HisAvi; test: SPR T200, mAb on anti-hFc, 37C, pH 7.4
[6] = biological target: T3, huIL-18Rβ-HisAvi; test: SPR T200, mAb on anti-hFc, 37C, pH 7.4; remark: listed apart in the source
[7] = biological target: T2, cyIL-18Rβ-HisAvi; test: SPR T200, mAb on anti-hFc, 37C, pH 7.4
[8] = biological target: T3, huIL-18Rβ-HisAvi; test: SPR T200, mAb on anti-hFc, 37C, pH 7.4; remark: listed apart in the source
[9] = biological target: T2, cyIL-18Rβ-HisAvi; test: SPR T200, mAb on anti-hFc, 37C, pH 7.4
[10] = biological target: T3, huIL-18Rβ-HisAvi; test: SPR T200, pH 7.4; sample stored at pH 6, T0
[11] = biological target: T3, huIL-18Rβ-HisAvi; test: SPR T200, pH 7.4; sample stored at pH 8, T0
[12] = biological target: T3, huIL-18Rβ-HisAvi; test: SPR T200, pH 7.4; sample stored at pH 6, 4 w 40C
[13] = biological target: T3, huIL-18Rβ-HisAvi; test: SPR T200, pH 7.4; sample stored at pH 8, 4 w 40C

B1: P21 (antibody, human IgG1, kappa, V domains shown)
VH: QVQLQQSGPGLVKPSETLSLTCTVSGGSISNYYWTWIRQPPGKGLEWIGYISDSGSTNYNPSLKSRVTISVDTSKNQFSLKLSSVTAADTAVYYCARETIVVRGFYFYVMDVWGQGTTVTVSS
VL: AIQLTQSPSSLSASVGDRVTITCRASQGISSALAWYQQRPGKAPKLLIYDASNWESGVPSRFSGSGSGTDFTLTISSLQPEDFATYYCQQFNSYPWTFGQGTKVEIKR
notes: Human IgG
For B1, the “IC50, IL-18-induced IFNγ release, KG-1 cells” value [1] was 0.7 nM, the Kd [2] was 11 nM and the koff [2] was 0.002 s⁻¹. It also gave a kon [2] of 180000 M⁻¹ s⁻¹, a Kd [3] of 0.65 nM and a koff [3] of 0.00031 s⁻¹. It also gave a kon [3] of 480000 M⁻¹ s⁻¹, a Kd [4] of 11 nM and a koff [4] of 0.002 s⁻¹. For the same binder, the kon [4] was 180000 M⁻¹ s⁻¹, the Kd [5] was 2.3 nM and the koff [5] was 0.0005 s⁻¹. For the same binder, the kon [5] was 220000 M⁻¹ s⁻¹, the Kd [6] was 1.8 nM and the koff [6] was 0.00043 s⁻¹. It also gave a kon [6] of 240000 M⁻¹ s⁻¹, a Kd [7] of 19 nM and a koff [7] of 0.0029 s⁻¹. For the same binder, the kon [7] was 150000 M⁻¹ s⁻¹, the Kd [8] was 1.8 nM and the koff [8] was 0.00043 s⁻¹. It also gave a kon [8] of 240000 M⁻¹ s⁻¹, a Kd [9] of 19 nM and a koff [9] of 0.0029 s⁻¹. The kon [9] was 150000 M⁻¹ s⁻¹, the Kd [10] was 1.6 nM and the koff [10] was 0.00038 s⁻¹. The kon [10] was 240000 M⁻¹ s⁻¹, the Kd [11] was 1.5 nM and the koff [11] was 0.00037 s⁻¹. The kon [11] was 250000 M⁻¹ s⁻¹, the Kd [12] was 5.6 nM and the koff [12] was 0.0013 s⁻¹. It also gave a kon [12] of 230000 M⁻¹ s⁻¹, a Kd [13] of 1.9 nM and a koff [13] of 0.0005 s⁻¹. It also gave a kon [13] of 260000 M⁻¹ s⁻¹.

B2: P20 (antibody, human IgG1, kappa)
heavy: QVQLQQSGPGLVKPSETLSLTCTVSGGSINNYYWSWIRQPPGKGLEWIGYIFYSGTTNYNPSLKSRVTISVDTSKNQFSLKLSSVTAADTAVYYCARDVGIAARNSYYYVMDVWGQGTTVTVSSASTKGPSVFPLAPSSKSTSGGTAALGCLVKDYFPEPVTVSWNSGALTSGVHTFPAVLQSSGLYSLSSVVTVPSSSLGTQTYICNVNHKPSNTKVDKRVEPKSCDKTHTCPPCPAPEAEGAPSVFLFPPKPKDTLMISRTPEVTCVVVDVSHEDPEVKFNWYVDGVEVHNAKTKPREEQYNSTYRVVSVLTVLHQDWLNGKEYKCKVSNKALPAPIEKTISKAKGQPREPQVYTLPPSREEMTKNQVSLTCLVKGFYPSDIAVEWESNGQPENNYKTTPPVLDSDGSFFLYSKLTVDKSRWQQGNVFSCSVMHEALHNHYTQKSLSLSPG
light: AIQLTQSPSSLSASVGDRVTITCRASQGISSALAWYQQKPGKAPKFLIYDASSLESGVPSRFSGSGSGTDFTLTISSLQPEDFATYYCQQFNSYPITFGQGTRLEIKRTVAAPSVFIFPPSDEQLKSGTASVVCLLNNFYPREAKVQWKVDNALQSGNSQESVTEQDSKDSTYSLSSTLTLSKADYEKHKVYACEVTHQGLSSPVTKSFNRGEC
notes: Human IgG
B2 was tested, and the “IC50, IL-18-induced IFNγ release, KG-1 cells” value [1] was 0.2 nM, the Kd [2] was 1.6 nM and the koff [2] was 0.00028 s⁻¹. The kon [2] was 180000 M⁻¹ s⁻¹, the “apparent Kd (pooled screen)” value [3] was 0.43 nM and the “apparent koff (pooled screen)” value [3] was 0.00016 s⁻¹. The “apparent kon (pooled screen)” value [3] was 380000 M⁻¹ s⁻¹, the Kd [4] was 1.6 nM and the koff [4] was 0.00028 s⁻¹. The kon [4] was 180000 M⁻¹ s⁻¹, the “apparent Kd (pooled screen)” value [5] was 1.8 nM and the “apparent koff (pooled screen)” value [5] was 0.00032 s⁻¹. For the same binder, the “apparent kon (pooled screen)” value [5] was 180000 M⁻¹ s⁻¹, the “apparent Kd (pooled screen)” value [6] was 0.51 nM and the “apparent koff (pooled screen)” value [6] was 0.00017 s⁻¹. For the same binder, the “apparent kon (pooled screen)” value [6] was 330000 M⁻¹ s⁻¹, the Kd [7] was 1.4 nM and the koff [7] was 0.00024 s⁻¹. The kon [7] was 180000 M⁻¹ s⁻¹, the “apparent Kd (pooled screen)” value [8] was 0.51 nM and the “apparent koff (pooled screen)” value [8] was 0.00017 s⁻¹. The Kd [9] was 1.4 nM, the koff [9] was 0.00024 s⁻¹ and the kon [9] was 180000 M⁻¹ s⁻¹. The “apparent Kd (pooled screen)” value [10] was 1.4 nM, the “apparent koff (pooled screen)” value [10] was 0.00033 s⁻¹ and the “apparent kon (pooled screen)” value [10] was 230000 M⁻¹ s⁻¹. The “apparent Kd (pooled screen)” value [11] was 1.6 nM, the “apparent koff (pooled screen)” value [11] was 0.00035 s⁻¹ and the “apparent kon (pooled screen)” value [11] was 220000 M⁻¹ s⁻¹. The “apparent Kd (pooled screen)” value [12] was 1.3 nM, the “apparent koff (pooled screen)” value [12] was 0.00039 s⁻¹ and the “apparent kon (pooled screen)” value [12] was 300000 M⁻¹ s⁻¹. For the same binder, the “apparent Kd (pooled screen)” value [13] was 1.6 nM, the “apparent koff (pooled screen)” value [13] was 0.00038 s⁻¹ and the “apparent kon (pooled screen)” value [13] was 240000 M⁻¹ s⁻¹.

B3: P20-V1 (antibody, human IgG1, kappa, V domains shown)
VH: QVQLQESGPGLVKPSETLSLTCTVSGGSINNYYWSWIRQPPGKGLEWIGYIFYSGTTNYNPSLKSRVTISVDTSKNQFSLKLSSVTAADTAVYYCARDVGIAARNSYYYVMDVWGQGTTVTVSS
VL: AIQLTQSPSSLSASVGDRVTITCRASQGISSALAWYQQKPGKAPKFLIYEASSLESGVPSRFSGSGSGTDFTLTISSLQPEDFATYYCQQFNSYPITFGQGTRLEIKR
notes: Variant of P20
B3 was tested, and the Kd [3] was 0.45 nM, the koff [3] was 0.00015 s⁻¹ and the kon [3] was 340000 M⁻¹ s⁻¹. For the same binder, the Kd [4] was 1.7 nM, the koff [4] was 0.00028 s⁻¹ and the kon [4] was 160000 M⁻¹ s⁻¹. It also gave a Kd [8] of 0.43 nM, a koff [8] of 0.00015 s⁻¹ and a kon [8] of 340000 M⁻¹ s⁻¹. The Kd [9] was 1.4 nM, the koff [9] was 0.00028 s⁻¹ and the kon [9] was 200000 M⁻¹ s⁻¹.

Source: US20250230251A1 (Bristol-Myers Squibb, published 2025)
